Reference: patent publication US20120309692
“And” between values parts separate entries of the source, which are not always exact repeats. Equal values may be shown once.

How the values were obtained:
[1] = system: Boc-Gln-Gly-Arg-AMC (SEQ ID NO: 54)
[2] = system: boc-Val-Pro-Arg-AMC (SEQ ID NO: 56)
[3] = system: GAEQKRRL (SEQ ID NO: 103)
[4] = system: H-D-Val-Leu-Lys-AMC (SEQ ID NO: 57)
[5] = system: H-Pro-Phe-Arg-AMC (SEQ ID NO: 55)
[6] = system: GHEQKRR-dL (SEQ ID NO: 110)
[7] = system: Boc-Phe-Ser-Arg-AMC (SEQ ID NO: 53)
[8] = system: GGKAR-dR-L (SEQ ID NO: 122)
Semenogelin II = Semenogelin II (UniProt Q02383)
[9] = system: GGKA-dR-RL (SEQ ID NO: 119)
Semenogelin I = Semenogelin I (UniProt P04279)
[10] = system: Tos-Gly-Pro-Arg-AMC (SEQ ID NO: 58)
[11] = system: Tos-Gly-Pro-Lys-AMC (SEQ ID NO: 59)
[12] = system: H-Arg-Gln-Arg-Arg-AMC (SEQ ID NO: 63)
[13] = target: protein C inhibitor (PCI) (UniProt P05154)
[14] = system: Z-Ala-Arg-Arg-AMC (SEQ ID NO: 62)
[15] = system: GHEQARRL (SEQ ID NO: 108)
[16] = system: GGKA-dR-dR-L (SEQ ID NO: 123)
[17] = system: Z-Val-Val-Arg-AMC (SEQ ID NO: 61)
[18] = system: GHEQKRRE (SEQ ID NO: 113)
[19] = system: Z-Leu-Leu-Arg-AMC (SEQ ID NO: 60)

Chain of protein C inhibitor (PCI) (P05154 20-406): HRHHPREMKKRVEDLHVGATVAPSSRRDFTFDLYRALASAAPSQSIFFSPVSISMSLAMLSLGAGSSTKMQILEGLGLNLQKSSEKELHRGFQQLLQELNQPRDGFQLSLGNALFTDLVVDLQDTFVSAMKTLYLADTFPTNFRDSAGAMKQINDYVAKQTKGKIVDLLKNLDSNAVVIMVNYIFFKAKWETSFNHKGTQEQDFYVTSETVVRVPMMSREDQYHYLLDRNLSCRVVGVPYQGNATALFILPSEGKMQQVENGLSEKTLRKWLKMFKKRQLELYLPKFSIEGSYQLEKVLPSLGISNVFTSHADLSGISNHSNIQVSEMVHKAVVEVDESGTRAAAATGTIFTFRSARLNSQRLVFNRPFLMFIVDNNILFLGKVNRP
Chain of Semenogelin I (P04279 24-462): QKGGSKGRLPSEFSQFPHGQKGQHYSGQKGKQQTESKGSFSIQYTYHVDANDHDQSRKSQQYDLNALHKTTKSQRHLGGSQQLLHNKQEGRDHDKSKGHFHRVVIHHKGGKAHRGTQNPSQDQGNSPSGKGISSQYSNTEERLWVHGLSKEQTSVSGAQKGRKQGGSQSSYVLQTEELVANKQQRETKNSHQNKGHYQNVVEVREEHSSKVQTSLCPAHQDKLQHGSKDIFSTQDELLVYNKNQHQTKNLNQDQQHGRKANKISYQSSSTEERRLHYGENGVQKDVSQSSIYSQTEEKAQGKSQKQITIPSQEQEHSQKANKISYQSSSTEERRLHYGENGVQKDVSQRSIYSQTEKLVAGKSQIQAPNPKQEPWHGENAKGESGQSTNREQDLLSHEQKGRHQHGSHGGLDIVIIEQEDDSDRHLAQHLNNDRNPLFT
Chain of Semenogelin II (Q02383 24-582): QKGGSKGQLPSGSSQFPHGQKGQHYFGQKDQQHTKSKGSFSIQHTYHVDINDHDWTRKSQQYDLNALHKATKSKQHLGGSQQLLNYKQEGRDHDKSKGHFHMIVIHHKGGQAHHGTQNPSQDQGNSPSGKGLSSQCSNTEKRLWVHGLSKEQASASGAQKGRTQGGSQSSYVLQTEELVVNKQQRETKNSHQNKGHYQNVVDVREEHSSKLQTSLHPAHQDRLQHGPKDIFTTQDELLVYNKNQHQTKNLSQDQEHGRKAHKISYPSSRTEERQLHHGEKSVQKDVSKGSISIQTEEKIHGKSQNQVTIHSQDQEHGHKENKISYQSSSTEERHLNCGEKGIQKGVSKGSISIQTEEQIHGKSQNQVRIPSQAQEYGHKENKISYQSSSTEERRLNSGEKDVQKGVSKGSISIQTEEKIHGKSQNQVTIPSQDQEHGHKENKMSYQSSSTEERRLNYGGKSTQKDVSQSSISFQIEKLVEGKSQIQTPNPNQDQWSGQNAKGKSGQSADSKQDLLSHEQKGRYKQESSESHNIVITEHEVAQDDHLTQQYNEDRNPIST

For “recombinant human glandular kallikrein 2 (hK2)”, the “substrate hydrolysis by hK2” value [1] was “NR”, the hK2 Hydrolysis Rate (GHEQKRRA (SEQ ID NO: 97)) was 3050 FU/hr/m and the Activity (%) with 100 µM substrate, relative to H-Pro-Phe-Arg-AMC [2] was 6%. The Kcat [2] was 0.0267 s⁻¹, the Kcat/km [2] was 567 M⁻¹ s⁻¹ and the Km [2] was 48 µM. For the same substance, the hK2 Hydrolysis Rate [3] was 2330 FU/hr/m, the hK2 Hydrolysis Rate (GGKQRRL (SEQ ID NO: 106)) was 2170 FU/hr/m and the hK2 Hydrolysis Rate (GSQNQVRL (SEQ ID NO: 82)) was 194 FU/hr/m. The hK2 Hydrolysis Rate (GSYPSSRL (SEQ ID NO: 75)) was 1460 FU/hr/m, the “substrate hydrolysis by hK2” value [4] was “NR” and the hK2 Hydrolysis Rate (GGKHRRL (SEQ ID NO: 107)) was 2080 FU/hr/m. It also gave a hK2 Hydrolysis Rate (GGAKRRL (SEQ ID NO: 98)) of 2770 FU/hr/m, a hK2 Hydrolysis Rate (GGGKAHHL (SEQ ID NO: 86)) of 70.2 FU/hr/m and a hK2 Hydrolysis Rate (GPAHQDRL (SEQ ID NO: 88)) of 75.3 FU/hr/m. For the same substance, the Activity (%) with 100 µM substrate, relative to H-Pro-Phe-Arg-AMC [5] was 100%, the Kcat [5] was 0.917 s⁻¹ and the Kcat/km [5] was 22900 M⁻¹ s⁻¹. For the same substance, the Km [5] was 40 µM, the “rate of cleavage of 100 µM substrate by 1.6 pmol hK2” value [5] was 1.6 pmol of the hK2 preparation cleaved 50 pmol/min of the 100 µM substrate Pro-Phe-Arg-AMC and the hK2 Hydrolysis Rate (GGKKRRL (SEQ ID NO: 100)) was 2580 FU/hr/m. For the same substance, the hK2 Hydrolysis Rate (GGKANRL (SEQ ID NO: 115)) was 1110 FU/hr/m, the hK2 Hydrolysis Rate (GGGKAHRL (SEQ ID NO: 68)) was 4100 FU/hr/m and the hK2 Hydrolysis Rate (GKDVSGRL (SEQ ID NO: 79)) was 243 FU/hr/m. It also gave a hK2 Hydrolysis Rate [6] of 1690 FU/hr/m, a hK2 Hydrolysis Rate (GSNTEKHL (SEQ ID NO: 87)) of 80.5 FU/hr/m and a hK2 Hydrolysis Rate (GGQKRRL (SEQ ID NO: 96)) of 3270 FU/hr/m. For the same substance, the hK2 Hydrolysis Rate (GPAHQDHL (SEQ ID NO: 90)) was 48.1 FU/hr/m, the hK2 Hydrolysis Rate (GGKSRRL (SEQ ID NO: 94)) was 3440 FU/hr/m and the hK2 Hydrolysis Rate (GHAQKRRL (SEQ ID NO: 93)) was 3670 FU/hr/m. For the same substance, the “substrate hydrolysis by hK2” value [7] was “NR”, the hK2 Hydrolysis Rate (GKDVSGHL (SEQ ID NO: 85)) was 67.5 FU/hr/m and the hK2 Hydrolysis Rate [8] was 49.6 FU/hr/m. The “cleavage by hK2 (HPLC of fragments)” value (Semenogelin II) was “Cleavage of either Sg I or Sg II with hK2 results in generation of a multitude of peptides”, the hK2 Hydrolysis Rate (GGGKARRL (SEQ ID NO: 67)) was 4780 FU/hr/m and the hK2 Hydrolysis Rate (GGKARRL (SEQ ID NO: 105)) was 2170 FU/hr/m. The hK2 Hydrolysis Rate [9] was 494 FU/hr/m, the “cleavage by hK2 (HPLC of fragments)” value (Semenogelin I) was “Cleavage of either Sg I or Sg II with hK2 results in generation of a multitude of peptides” and the hK2 Hydrolysis Rate (GGKAFRL (SEQ ID NO: 102)) was 2370 FU/hr/m. For the same substance, the hK2 Hydrolysis Rate (GGKARRS (SEQ ID NO: 111)) was 1610 FU/hr/m, the hK2 Hydrolysis Rate (GSQNQVHL (SEQ ID NO: 92)) was 32.5 FU/hr/m and the hK2 Hydrolysis Rate (GHEQKGHL (SEQ ID NO: 89)) was 1.3 FU/hr/m. For the same substance, the hK2 Hydrolysis Rate (GSYPSRRL (SEQ ID NO: 74)) was 2060 FU/hr/m, the “substrate hydrolysis by hK2” value [10] was “NR” and the hK2 Hydrolysis Rate (GGKAQRL (SEQ ID NO: 104)) was 2230 FU/hr/m. For the same substance, the hK2 Hydrolysis Rate (GGKAHKL (SEQ ID NO: 121)) was 73.2 FU/hr/m, the hK2 Hydrolysis Rate (GHEQKRRS (SEQ ID NO: 99)) was 2640 FU/hr/m and the “substrate hydrolysis by hK2” value [11] was “NR”. For the same substance, the hK2 Hydrolysis Rate (GGKAKRL (SEQ ID NO: 109)) was 1790 FU/hr/m, the “substrate hydrolysis by hK2” value [12] was “NR” and the hK2 Hydrolysis Rate (GHEAKRRL (SEQ ID NO: 95)) was 3320 FU/hr/m. For the same substance, the hK2 Hydrolysis Rate (GSNTERRL (SEQ ID NO: 77)) was 592 FU/hr/m, the “progress curves of Pro-Phe-Arg-AMC hydrolysis by 8 nM hK2 with 80, 40 or 16 nM PCI” value [13] was “The inhibitor of hK2 by PCI could be described by the slow-binding inhibition mechanism presented in Scheme 2” and the hK2 Hydrolysis Rate (GGKAKKL (SEQ ID NO: 120)) was 77.9 FU/hr/m. It also gave an Activity (%) with 100 µM substrate, relative to H-Pro-Phe-Arg-AMC [14] of 33%, a Kcat [14] of 0.12 s⁻¹ and a Kcat/km [14] of 6000 M⁻¹ s⁻¹. For the same substance, the Km [14] was 20 µM, the hK2 Hydrolysis Rate (GHEQKRRL (SEQ ID NO: 66)) was 5970 FU/hr/m and 3370 FU/hr/m and the hK2 Hydrolysis Rate (GSKGHFRL (SEQ ID NO: 70)) was 3030 FU/hr/m. It also gave a hK2 Hydrolysis Rate (GSKGHRRL (SEQ ID NO: 71)) of 2650 FU/hr/m, a hK2 Hydrolysis Rate [15] of 1960 FU/hr/m and a hK2 Hydrolysis Rate (GSQNQRRL (SEQ ID NO: 73)) of 2100 FU/hr/m. The hK2 Hydrolysis Rate [16] was 16.5 FU/hr/m, the hK2 Hydrolysis Rate (GHEQKGRL (SEQ ID NO: 76)) was 651 FU/hr/m and the “substrate hydrolysis by hK2” value [17] was “NR”. It also gave a hK2 Hydrolysis Rate (GSYPSSHL (SEQ ID NO: 91)) of 24.7 FU/hr/m, a hK2 Hydrolysis Rate (GGKARQL (SEQ ID NO: 116)) of 1020 FU/hr/m and a hK2 Hydrolysis Rate (GPLILSRL (SEQ ID NO: 83)) of 118 FU/hr/m. For the same substance, the hK2 Hydrolysis Rate (GGHKRRL (SEQ ID NO: 101)) was 2430 FU/hr/m, the hK2 Hydrolysis Rate (GSNTEKRL (SEQ ID NO: 80)) was 256 FU/hr/m and the hK2 Hydrolysis Rate (GGKAHRL (SEQ ID NO: 114)) was 1290 FU/hr/m. The hK2 Hydrolysis Rate (GGKARNL (SEQ ID NO: 118)) was 828 FU/hr/m, the hK2 Hydrolysis Rate [18] was 1470 FU/hr/m and the hK2 Hydrolysis Rate (GSYEERRL (SEQ ID NO: 78)) was 325 FU/hr/m. The hK2 Hydrolysis Rate (GKDVSRRL (SEQ ID NO: 72)) was 2320 FU/hr/m, the hK2 Hydrolysis Rate (GGKARHL (SEQ ID NO: 117)) was 939 FU/hr/m and the hK2 Hydrolysis Rate (GSYEERHL (SEQ ID NO: 84)) was 42.9 FU/hr/m. For the same substance, the hK2 Hydrolysis Rate (GGKARKL (SEQ ID NO: 112)) was 1600 FU/hr/m, the Activity (%) with 100 µM substrate, relative to H-Pro-Phe-Arg-AMC [19] was 7% and the Kcat [19] was 0.04 s⁻¹. The Kcat/km [19] was 567 M⁻¹ s⁻¹, the Km [19] was 71 µM and the hK2 Hydrolysis Rate (GSKGHFHL (SEQ ID NO: 81)) was 171 FU/hr/m. It also gave a hK2 Hydrolysis Rate (GPAHQRRL (SEQ ID NO: 69)) of 4020 FU/hr/m.
